Uptake of hPSAP (1 μg/ml) by primary cortical neurons in the presence of GST-RAP (50 μg/ml), immunoblot data for one molecule are collected here from paper PMC5477518.

In the experiment the target is LRP1, endogenous on primary cortical neurons (mouse (endogenous in primary cortical neurons)) (UniProt Q91ZX7).
UniProt Q91ZX7, sequence (Q91ZX7 20-4545): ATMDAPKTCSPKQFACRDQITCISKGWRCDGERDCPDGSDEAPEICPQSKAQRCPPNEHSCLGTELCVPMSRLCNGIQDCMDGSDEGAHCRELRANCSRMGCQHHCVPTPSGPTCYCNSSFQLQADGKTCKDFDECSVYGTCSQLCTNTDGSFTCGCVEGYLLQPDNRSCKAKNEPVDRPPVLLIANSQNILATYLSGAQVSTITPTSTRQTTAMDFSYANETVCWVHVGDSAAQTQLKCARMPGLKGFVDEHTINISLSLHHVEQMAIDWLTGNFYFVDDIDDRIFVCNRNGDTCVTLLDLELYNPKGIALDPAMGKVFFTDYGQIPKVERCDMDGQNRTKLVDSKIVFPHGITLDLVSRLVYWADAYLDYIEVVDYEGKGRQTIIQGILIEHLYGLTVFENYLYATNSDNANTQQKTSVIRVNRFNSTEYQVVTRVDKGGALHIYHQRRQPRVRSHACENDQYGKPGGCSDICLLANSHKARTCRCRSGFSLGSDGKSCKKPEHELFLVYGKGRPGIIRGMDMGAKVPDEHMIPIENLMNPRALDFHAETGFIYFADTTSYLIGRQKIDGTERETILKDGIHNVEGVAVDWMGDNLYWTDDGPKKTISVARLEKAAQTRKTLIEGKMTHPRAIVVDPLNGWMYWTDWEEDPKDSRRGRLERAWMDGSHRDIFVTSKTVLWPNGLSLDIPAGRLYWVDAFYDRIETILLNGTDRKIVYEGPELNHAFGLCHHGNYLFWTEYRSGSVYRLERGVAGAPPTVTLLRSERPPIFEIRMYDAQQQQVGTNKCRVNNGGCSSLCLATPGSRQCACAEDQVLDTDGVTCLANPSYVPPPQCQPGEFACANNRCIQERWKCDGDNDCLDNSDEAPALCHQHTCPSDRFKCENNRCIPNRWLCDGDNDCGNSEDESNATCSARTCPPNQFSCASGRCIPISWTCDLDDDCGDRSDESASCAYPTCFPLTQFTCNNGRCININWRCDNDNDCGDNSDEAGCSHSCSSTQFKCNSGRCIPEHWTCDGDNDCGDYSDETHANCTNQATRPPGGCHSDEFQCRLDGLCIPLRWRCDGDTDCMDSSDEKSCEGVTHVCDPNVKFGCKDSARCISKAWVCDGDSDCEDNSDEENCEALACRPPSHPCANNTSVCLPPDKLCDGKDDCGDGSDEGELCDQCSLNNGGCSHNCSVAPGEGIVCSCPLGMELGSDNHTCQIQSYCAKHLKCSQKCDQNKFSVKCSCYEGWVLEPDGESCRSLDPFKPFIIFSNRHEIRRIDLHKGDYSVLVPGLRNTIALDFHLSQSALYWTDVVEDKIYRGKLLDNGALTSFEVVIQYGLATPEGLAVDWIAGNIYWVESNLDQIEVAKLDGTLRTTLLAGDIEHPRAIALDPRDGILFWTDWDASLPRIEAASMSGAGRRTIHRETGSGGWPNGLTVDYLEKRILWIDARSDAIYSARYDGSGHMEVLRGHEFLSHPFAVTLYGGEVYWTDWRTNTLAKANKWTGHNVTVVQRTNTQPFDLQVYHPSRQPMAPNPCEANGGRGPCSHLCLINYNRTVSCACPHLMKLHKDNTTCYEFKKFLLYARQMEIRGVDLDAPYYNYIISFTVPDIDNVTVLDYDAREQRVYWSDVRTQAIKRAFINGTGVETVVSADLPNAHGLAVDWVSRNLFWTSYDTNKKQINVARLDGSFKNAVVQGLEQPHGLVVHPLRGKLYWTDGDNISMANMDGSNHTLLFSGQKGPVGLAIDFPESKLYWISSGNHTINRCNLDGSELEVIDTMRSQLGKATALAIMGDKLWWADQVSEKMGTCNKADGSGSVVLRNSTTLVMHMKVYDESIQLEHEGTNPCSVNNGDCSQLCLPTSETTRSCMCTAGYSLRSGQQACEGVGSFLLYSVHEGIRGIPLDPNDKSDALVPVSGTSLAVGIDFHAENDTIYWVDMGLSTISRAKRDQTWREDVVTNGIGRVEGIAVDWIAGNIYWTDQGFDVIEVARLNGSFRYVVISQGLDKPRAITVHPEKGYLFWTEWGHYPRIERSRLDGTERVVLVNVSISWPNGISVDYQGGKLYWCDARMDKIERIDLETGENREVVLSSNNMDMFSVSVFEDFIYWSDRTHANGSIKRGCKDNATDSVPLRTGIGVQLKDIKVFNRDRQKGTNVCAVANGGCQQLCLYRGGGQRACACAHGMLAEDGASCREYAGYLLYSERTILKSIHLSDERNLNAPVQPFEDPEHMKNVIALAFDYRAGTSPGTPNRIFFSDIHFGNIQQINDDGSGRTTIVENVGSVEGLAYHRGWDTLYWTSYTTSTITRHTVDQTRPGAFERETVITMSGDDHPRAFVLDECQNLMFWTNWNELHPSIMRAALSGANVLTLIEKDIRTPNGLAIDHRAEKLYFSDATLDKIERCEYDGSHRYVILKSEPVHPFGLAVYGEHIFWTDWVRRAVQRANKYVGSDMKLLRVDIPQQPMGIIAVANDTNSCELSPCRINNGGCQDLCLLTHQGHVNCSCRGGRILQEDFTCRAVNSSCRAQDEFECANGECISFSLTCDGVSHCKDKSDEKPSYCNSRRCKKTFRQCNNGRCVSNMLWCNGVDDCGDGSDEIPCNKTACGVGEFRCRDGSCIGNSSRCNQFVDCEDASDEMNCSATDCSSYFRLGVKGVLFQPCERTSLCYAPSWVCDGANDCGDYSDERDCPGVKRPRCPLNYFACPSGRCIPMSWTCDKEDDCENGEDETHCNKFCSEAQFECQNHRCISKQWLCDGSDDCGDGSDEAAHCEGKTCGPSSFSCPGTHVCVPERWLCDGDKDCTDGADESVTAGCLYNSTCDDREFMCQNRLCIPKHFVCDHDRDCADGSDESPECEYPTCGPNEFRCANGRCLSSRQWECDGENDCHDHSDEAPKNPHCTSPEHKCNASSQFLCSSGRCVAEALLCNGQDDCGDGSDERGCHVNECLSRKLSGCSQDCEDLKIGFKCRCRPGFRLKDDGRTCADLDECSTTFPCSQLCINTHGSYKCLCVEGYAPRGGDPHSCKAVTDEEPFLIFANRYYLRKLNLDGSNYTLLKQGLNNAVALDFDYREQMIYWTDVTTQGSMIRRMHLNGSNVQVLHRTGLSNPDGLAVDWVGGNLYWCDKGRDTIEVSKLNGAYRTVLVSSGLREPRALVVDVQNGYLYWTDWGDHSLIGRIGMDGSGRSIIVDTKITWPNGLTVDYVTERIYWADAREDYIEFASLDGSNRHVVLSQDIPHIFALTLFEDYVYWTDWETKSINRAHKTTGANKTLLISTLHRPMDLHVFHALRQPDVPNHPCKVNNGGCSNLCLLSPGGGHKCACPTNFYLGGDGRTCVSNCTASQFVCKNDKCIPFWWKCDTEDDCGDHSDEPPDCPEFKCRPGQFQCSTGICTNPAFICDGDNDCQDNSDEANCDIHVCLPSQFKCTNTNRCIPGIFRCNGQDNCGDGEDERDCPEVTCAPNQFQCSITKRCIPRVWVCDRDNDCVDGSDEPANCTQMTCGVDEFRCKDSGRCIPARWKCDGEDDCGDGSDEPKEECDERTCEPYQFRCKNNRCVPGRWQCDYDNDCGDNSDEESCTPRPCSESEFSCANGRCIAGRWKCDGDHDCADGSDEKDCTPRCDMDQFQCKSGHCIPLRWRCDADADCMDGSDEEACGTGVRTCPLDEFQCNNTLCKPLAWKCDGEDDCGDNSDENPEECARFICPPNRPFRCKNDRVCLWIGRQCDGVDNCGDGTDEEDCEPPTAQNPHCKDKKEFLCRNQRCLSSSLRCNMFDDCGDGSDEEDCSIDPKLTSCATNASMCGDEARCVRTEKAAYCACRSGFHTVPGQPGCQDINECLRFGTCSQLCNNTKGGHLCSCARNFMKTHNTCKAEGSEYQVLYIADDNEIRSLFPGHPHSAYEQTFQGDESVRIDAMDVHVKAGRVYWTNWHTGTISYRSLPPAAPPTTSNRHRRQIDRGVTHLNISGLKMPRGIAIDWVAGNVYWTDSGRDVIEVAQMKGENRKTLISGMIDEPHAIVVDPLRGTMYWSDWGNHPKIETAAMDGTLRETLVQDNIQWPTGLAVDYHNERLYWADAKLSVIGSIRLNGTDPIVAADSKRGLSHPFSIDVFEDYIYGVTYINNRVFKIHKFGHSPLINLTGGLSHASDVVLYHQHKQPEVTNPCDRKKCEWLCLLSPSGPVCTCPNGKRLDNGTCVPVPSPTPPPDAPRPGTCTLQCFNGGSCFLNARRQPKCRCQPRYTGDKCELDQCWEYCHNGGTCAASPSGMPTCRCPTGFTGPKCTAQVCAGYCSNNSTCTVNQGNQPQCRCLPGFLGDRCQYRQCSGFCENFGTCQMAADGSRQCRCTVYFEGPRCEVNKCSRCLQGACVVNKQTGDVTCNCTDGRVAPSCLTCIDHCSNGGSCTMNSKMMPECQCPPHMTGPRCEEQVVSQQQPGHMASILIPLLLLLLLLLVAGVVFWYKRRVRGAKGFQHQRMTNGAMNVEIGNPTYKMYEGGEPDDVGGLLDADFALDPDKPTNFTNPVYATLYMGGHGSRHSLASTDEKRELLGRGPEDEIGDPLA

B1: Recombinant his-human PSAP (natural protein)
chain: GPVLGLKECTRGSAVWCQNVKTASDCGAVKHCLQTVWNKPTVKSLPCDICKDVVTAAGDMLKDNATEEEILVYLEKTCDWLPKPNMSASCKEIVDSYLPVILDIIKGEMSRPGEVCSALNLCESLQKHLAELNHQKQLESNKIPELDMTEVVAPFMANIPLLLYPQDGPRSKPQPKDNGDVCQDCIQMVTDIQTAVRTNSTFVQALVEHVKEECDRLGPGMADICKNYISQYSEIAIQMMMHMQPKEICALVGFCDEVKEMPMQTLVPAKVASKNVIPALELVEPIKKHEVPAKSDVYCEVCEFLVKEVTKLIDNNKTEKEILDAFDKMCSKLPKSLSEECQEVVDTYGSSILSILLEEVSPELVCSMLHLCSGTRLPALTVHVTQPKDGGFCEVCKKLVGYLDRNLEKNSTKQEILAALEKGCSFLPDPYQKQCDQFVAEYEPVLIEILVEVMDPSFVCLKIGACPSAHKPLLGTEKCIWGPSYWCQNTETAAQCNAVEHCKRHVWN
In the case of B1, the uptake of hPSAP (1 μg/ml) by primary cortical neurons in the presence of GST-RAP (50 μg/ml), immunoblot was 75%.
